Ten molecules from patent US20150030595A1 (ANTIBODY AND RECEPTOR THERAPEUTICS, published 2015) can be followed below.

Read-outs that look alike come from different tables or passages of the source.

Assay [1] deals with T1, Fc.
T1 construct: domain: Fc
The experiment in a line: phage ELISA, Fc coated.

The target of assay [2] is T2, anti-myc antibody coated on the ELISA plate.
T2 construct: also called a-MYC; a-myc
The experiment in a line: phage ELISA, anti-myc coated. The method, then:
(§1) Colonies obtained from a group of the polyclonal phage antibodies having high binding capacity were cultured at a temperature of 37° C. for 16 hours in a 96-deep well plate (Bioneer 90030) containing 1 ml of a medium supplemented with 2×YTCM, 2% glucose, and 5 mM MgCl₂. 100 to 200 μl of the cultured cells were taken, and diluted with 1 ml of a medium supplemented with 2×YTCM, 2% glucose, and 5 mM MgCl₂ so that the OD₆₀₀ value of the cultured cells reached 1. Thereafter, the cells were cultured at a temperature of 37° C. for 2 to 3 hours in a 96-deep well plate so that the OD₆₀₀ value reached 0.5 to 0.7. Then, the cells were infected with an […] so that an MOI value became 1:20, and then cultured at a temperature of 30° C. for 16 hours in a medium supplemented with 2×YTCMK, 5 mM MgCl₂, and 1 mM IPTG. The cultured cells were centrifuged (at 4,500 rpm and 4° C. for 15 minutes) to collect a supernatant. Then, the supernatant was thoroughly dissolved in 4% PEG 6000 and 3% NaCl, and reacted on ice for an hour. The resulting reaction mixture was centrifuged again (at 8,000 rpm and 4° C. for 20 minutes), and the pellet was dissolved in PBS, and then centrifuged (at 12,000 rpm and 4° C. for 10 minutes) to obtain a supernatant, which was transferred to a new tube and stored at 4° C. Subsequently, a 96-well immunoplate was coated with antigens at a concentration of 100 ng per well by treating the immunoplate with the antigens at 4° C. for 16 hours, and each well was then blocked with skim milk (4%) dissolved in PBS. Each well was washed with 0.2 ml of PBS-Tween 20 (0.05%), and 100 μl of the monoclonal scFv-phages obtained by the above-described method were added to each well, and then reacted at room temperature for 2 hours. Each well was again washed four times with […] of PBS-Tween 20 (0.05%), and a secondary antibody, anti-M13-HRP, was diluted at 1:2000, added to each well, and then reacted at room temperature for an hour. Each well was washed with […] of PBS-Tween 20, colorimetrically developed, and then measured for optical density at 490 nm.
In general terms: ELISA stands for enzyme-linked immunosorbent assay.

For assay [3], the target named is T3, ACVR2B-Fc fusion protein (human, UniProt Q13705 19-137).
T3 construct: also called water-soluble ACVR2B
T3 sequence: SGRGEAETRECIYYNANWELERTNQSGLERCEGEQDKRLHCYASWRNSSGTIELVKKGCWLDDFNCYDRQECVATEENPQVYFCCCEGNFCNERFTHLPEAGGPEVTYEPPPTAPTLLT
Put plainly: phage ELISA; OD on ACVR2B divided by OD on a-myc.

Assay [4] has as its target T2, anti-myc antibody coated on the ELISA …. Put plainly: phage ELISA, anti-myc coated. The source holds these as a separate data set.
Assay [5] deals with T1, Fc. Put plainly: phage ELISA, Fc coated. The protocol: as §1
This is another data set of the same source.

For assay [6], the target named is T3, ACVR2B-Fc fusion protein. The experiment in a line: phage ELISA, ACVR2B coated.
Assay [7] addresses T3, ACVR2B-Fc fusion protein. The experiment in a line: phage ELISA, ACVR2B coated. The protocol: as §1
This is another data set of the same source.

B1: ACVR2B D07 (monoclonal scFv-phage) (scFv, V domains shown)
VH: QVQLVQSGAEVKKPGASVKVSCKASGYTFTSYYMHWVRQAPGQGLEWMGIINPSGGSTSYAQKFQGRVTMTRDTSTSTVYMELSSLRSEDTAVYYCAKDQSRGWYSNFDSWGQGTLVTVSS
VL: DIQMTQSPSTLSASVGDRVTITCRASQTVSNWLAWYQLKPGKAPKLLIYKASSLESGVPSRFSGTGSETEFTLTISSLQPDDFATYYCQQYHSYPITFGQGTRLEIK
notes: also called D7
Regarding B1, the OD490 with Fc [1] turned out to be 0.042 OD; in assay [2] it was 0.241 OD; in assay [4], 0.24 OD; in the assay with Fc [5], 0.0428 OD; in the assay with ACVR2B-Fc fusion protein [6], 2.66 OD; with ACVR2B-Fc fusion protein [7] it was 2.66 OD. Also, in the assay with ACVR2B-Fc fusion protein [3], the Ratio was determined as 11.

B2: ACVR2B A06 (monoclonal scFv-phage) (scFv, V domains shown)
VH: VQLVQSGGGLVQPGRSLRLSCTASGFTFGDYAMSWVRQAPGKGLEWVGFIRSKRYDGTAEYAASVKGRFTISRDDSKNSLYLQMNSLRAEDTAVYYCARGHYAMDVWGQGTTVTVSS
VL: DIQMTQSPSSLSASVGDRVTITCRASRSISNYLNWYQQKPGKAPKLLIYAASSLQSGVPSRFSGSGSGTDFTLTISSLQPEDFATYYCQQSYDTPFTFGLGNQLEIK
notes: also called A6
Turning to B2, the OD490 in the assay with Fc [1] was 0.046 OD; in assay [2] it was 0.704 OD; in assay [4], 0.703 OD; in the assay with Fc [5], 0.046 OD; with ACVR2B-Fc fusion protein [6], 2.96 OD; with ACVR2B-Fc fusion protein [7], 2.96 OD. In the assay with ACVR2B-Fc fusion protein [3], the Ratio stood at 4.21.

B3: ACVR2B D11 (monoclonal scFv-phage) (scFv, V domains shown)
VH: MQLVQSGGGLVQPGRSLGLSCTASGFTFGDYAMSWVRQAPGKGLEWVGFIRSKAYGGTTEYAASVKGRLTISRDDSKSIAYLQMNSLRAEDTAVYYCARGHYGMDVWGQGTTVTVSS
VL: DIQMTQSPSSLSASVGDRVTITCRASQNISNFLNWYQQKPGKAPKLLIYSASRLQRGVPSRFSGSGSGTDFTLTISSLQPEDFATYYCQQSYSTPYTFGQGTKLEIK
As to B3, the OD490 turned out to be 0.042 OD in the assay with Fc [1]; 0.834 OD in assay [2]; 0.833 OD in assay [4]; 0.0429 OD in the assay with Fc [5]; 3.05 OD with ACVR2B-Fc fusion protein [6]; 3.05 OD with ACVR2B-Fc fusion protein [7]. Also, the Ratio in the assay with ACVR2B-Fc fusion protein [3] stood at 3.66.

B4: ACVR2B B11 (monoclonal scFv-phage) (scFv, V domains shown)
VH: VQLVESGGGLVQPGRSLRLSCAASGFTFDNHAMHWVRRAPGKGLEWVSGISWNGGTTAYADSVKGRFSIFRDNAEKSLYLQMNSLRAEDTAVYYCARGSSSGRYYFDYWGQGTLVTVSS
VL: DIQMTQSPSSVSASVGDRVTITCRASQGISTYLNWYQHQSGKAPKLLIYGAFRLQSGVPSRFSGSGSGTDFTLTISNLQPEDFATYYCQQAKNFPLTFGGGTKVDIK
For B4, the OD490 in the assay with Fc [1] is 0.047 OD; in assay [2] it was 0.657 OD; in assay [4], 0.657 OD; in the assay with Fc [5] it was 0.0477 OD; in the assay with ACVR2B-Fc fusion protein [6], 2.99 OD; in the assay with ACVR2B-Fc fusion protein [7] it was 2.99 OD. Further, the Ratio with ACVR2B-Fc fusion protein [3] is 4.55.

B5: ACVR2B A09 (monoclonal scFv-phage) (scFv, V domains shown)
VH: VQLVESGGGLVQPGRSLRLSCAASGFTFDSYWMSWVRQAPGKGLEWVANIKYDGSEKHYMDSVKGRFTISRDNAKNSVYLQMNSLRAEDTAVYYCAKGAWLDYWGQGTQVTVSS
VL: IQMTQSPSAMSASVGDRVTITCRASQGISNYLAWFQQKPGKVPKRLIYAASSLQSGVPSRFSGSGSGTGFTLTITSLQPEDFATYYCLQHKSYPYTFGQGTKLEIK
notes: also called A9
As to B5, the OD490 in the assay with Fc [1] is 0.048 OD; in assay [2] it was 1.17 OD; in assay [4], 1.17 OD; with Fc [5], 0.0482 OD; in the assay with ACVR2B-Fc fusion protein [6] it was 2.18 OD; in the assay with ACVR2B-Fc fusion protein [7], 2.18 OD. The Ratio in the assay with ACVR2B-Fc fusion protein [3] amounted to 1.86.

B6: ACVR2B F08 (monoclonal scFv-phage) (scFv, V domains shown)
VH: VQLVESGGGLVQPGGSLRLSCAASGFTFSDHYMDWVRQAPGKGLEWVGRTRNKANSYTTEYAASVKGRFTISRDDSKNSLYLQMNSLRAEDTAVYYCTKGAWLDYWGQGTLVTVSS
VL: IQMTQSPSAMSASVGDRVTITCRASQGISNYLAWFQQKPGKVPKRLIYGASSLQGGVPSRFSGSGSGTEFTLTITSLQPEDFATYFCLQHKSYPLTFGPGTKVEIK
notes: also called F8
Consider B6, for which the OD490 with Fc [1] was 0.116 OD; in assay [2], 0.783 OD; in assay [4], 0.783 OD; with Fc [5], 0.117 OD; in the assay with ACVR2B-Fc fusion protein [6], 2.94 OD; with ACVR2B-Fc fusion protein [7], 2.94 OD. In addition, the Ratio with ACVR2B-Fc fusion protein [3] was 3.75.

B7: ACVR2B B12 (monoclonal scFv-phage) (scFv, V domains shown)
VH: VQLVQSGAEVKKPGESLKISCKTSGYTFTHYWIGWVRQMPGKGLEWMGRINPTDSYADYSPSFQGHVIMSVDKSVSTAYLHWNSLKASDTAMYYCARGTALGVWGQGTTVTVSS
VL: IQMTQSPSAMSASVGDRVTITCRASQGISNYLAWFQQKPGKVPKRLIYAASSLQSGVPSRFSGSGSGTEFTLTITSLQPEDFATYYCLQHKSYPYTFGQGTKLEIK
B7: the OD490 in the assay with Fc [1] worked out at 0.044 OD; in assay [2], 1.46 OD; in assay [4], 1.46 OD; with Fc [5], 0.0447 OD; in the assay with ACVR2B-Fc fusion protein [6], 2.75 OD; with ACVR2B-Fc fusion protein [7] it was 2.76 OD. In addition, the Ratio with ACVR2B-Fc fusion protein [3] turned out to be 1.89.

B8: ACVR2B B08 (monoclonal scFv-phage) (scFv, V domains shown)
VH: VQLVQSGGGLVHPGQSLRLSCTGSGFPFGDYSMTWVRQAPGKGLEWVGLVRSKAYGGTTEYAASVKGRFIMSRDDSRSIAYLQMNSLRAEDTAVYYCARGHYGMDVWGQGTTVTVSS
VL: DIQMTQSPSSVSASVGDRVTITCRASQGISNWLAWYQQKPGKAPKLLIYAASSLQSGVPSRFSGSGSGTDFTLTISSLQPEDFATYYCQQAKSYPYTFGQGTKVEIK
notes: also called B8
B8: the OD490 was 0.045 OD with Fc [1]; 1.16 OD in assay [2]; 1.16 OD in assay [4]; 0.0455 OD with Fc [5]; 2.64 OD with ACVR2B-Fc fusion protein [6]; 2.64 OD with ACVR2B-Fc fusion protein [7]. Besides, in the assay with ACVR2B-Fc fusion protein [3], the Ratio is 2.28.

B9: ACVR2B C07 (monoclonal scFv-phage) (scFv, V domains shown)
VH: QMQLVQSGGGLVKPGGSLRLSCAPSGFTFRDYHMSWIRQAPGKGLEWISNISNSGTNIYYADSVKGRFTISRDNAKNSLYLQMNSLRAEDTAVYYCARGHYGMDIWGQGTTITVSS
VL: DIQMTQSPSSLSASVGDRVTITCRASQGIANYLAWYQQKPGKAPKLLIYAASTLQSGVPSRFSGSGSGTDFTLTISSLQPEDFATYYCQQVKSYPLSFGGGTKVEIK
notes: also called C7
Turning to B9, the OD490 with Fc [1] worked out at 0.043 OD; in assay [2] it was 0.441 OD; in assay [4], 0.44 OD; with Fc [5], 0.0435 OD; in the assay with ACVR2B-Fc fusion protein [6] it was 2.98 OD; in the assay with ACVR2B-Fc fusion protein [7], 2.98 OD. Also, the Ratio with ACVR2B-Fc fusion protein [3] worked out at 6.75.

B10: ACVR2B C08 (monoclonal scFv-phage) (scFv, V domains shown)
VH: VQLVESGGGLVQPGGSLRLSCSASGFTFSSYAMHWVRQAPGKGLEYVSAISSNGGSTYYADSVKGRFTISRDNSKNTLYLQMNSLRAEDTAVYYCAKTYGGYGNAFDIWGQGTMITVSS
VL: DIQMTQSPSSVSASVGDRVTITCRASQGISRWLAWYQQKPGKAPKLLIYAASNLQSGVPSRFSGSGSGTDFTLTINSLQPEDFATYFCQQGKSFPYTFGPGTKVEIK
notes: also called C8
Turning to B10, the OD490 with Fc [1] stood at 0.072 OD; in assay [2], 1.17 OD; in assay [4], 1.17 OD; with Fc [5], 0.0721 OD; with ACVR2B-Fc fusion protein [6] it was 2.87 OD; with ACVR2B-Fc fusion protein [7] it was 2.86 OD. The Ratio with ACVR2B-Fc fusion protein [3] is 2.45.
